Assay results published in the DeepSol protein solubility set.

test: soluble on expression in E. coli; label from the status in PepcDB or PDB records

Row | Sequence | soluble on expression in E. coli
1 | MKKAVVVFSGGQDSTTCLVQALKEFDEVHAITFDYGQRHKLEIEVAQKIAKDLGVKAHKVMDVGLLNELAISSLTRDDIPVSHELQENGLPNSFVPGRNILFLTLAGIYAYQIGADTVITGVCETDFSGYPDCRDDFVKSMNTALVKGMDRALTIKTPLMWLNKAETWALADQYNALQLVRENTLTCYNGIIGDGCGDCPSCDLRKAGLDEYLNNKDAVMKSLVQKQESEGL | not soluble
2 | MKKFFRFQLCCICLLVLIVSACKVKRPDSVISESEMENLLYDYHIAKAMGENMPGGENYKKALYVEAVFKKYGTTEEVFDSSMVWYTRNTKILSEIYEKVNKRLKAQQNAINHLIALRDNKPKMSAPGDSINVWAWQRIAQLTEAPLNNKFTFTLPSDTNFKKRDVLLWKMQYNFLSEIPDSTMAPIMAMQIVYENDTVTHSCVKHIFKSGIQNIRLQSDTMNIKEIKGFIFCPLSEESITLLVSDISLTRYHANDSITQISKDSLKTDSIKEKSKNDSIQKKTPKDTIQASSSHQRTNPNDLNRPNNDVRPIKPEQREKEMQIEKEKQQLERQQRTNPRRPLRRQNN | not soluble
3 | MKKGHHHHHHGSQYNPQVADLKAFSKHIYNAYLKNFNMTKKKARSILTGKASHTAPFVIHDIETLWQAEKGLVWKQLVNGLPPYKEISVHVFYRCQCTTVETVRELTEFAKSIPSFSSLFLNDQVTLLKYGVHEAIFAMLASIVNKDGLLVANGSGFVTREFLRSLRKPFSDIIEPKFEFAVKFNALELDDSDLALFIAAIILCGDRPGLMNVPRVEAIQDTILRALEFHLQANHPDAQYLFPKLLQKMADLRQLVTEHAQMMQRIKKTETETSLHPLLQEIYKDMY | soluble
4 | MKKIALAVLSLGLLVSGCSAGADKDEKVAEKSGKAKEQSVVPKYAISDEYYKTTIPFDGGNARGLVVQGLNSRLDIDEFETGLMRIAKESFSTKDNFLKGGKALDTQTIQMLVKRKRTDAEQKELEDKLKKDAVKFPNIGLNPALGTGSESLEVKNKKNPIYISNILEHDYYVKKGDNGEERVGMVVGLAMNSVQYFNEEHGYPREAAIPDEKMLAEGKKMAQEILKVIHQKEPETKNIPITFAIYRQAPKSSLVPGNFVSYANVEKGSETVEDWQQINEKYYLFPSEQAKTDNKREDLARVSNFKAKLSDYFQGDYTAVIGTGMYRDDELREMKLDIPVQFNGKAEIVGFTQYVAGLVMEYFPNYMKVQVTIKSVERPEAIIIREAKQDEPLVKILD | not soluble
5 | MKKIDSAVAVEPAATVPKGRKNNPEKTREDILKAAVAEFVAHGLTGARVDAIAERTKTSKRMIYYYFGSKEQLYVEVLEKLYGAIRNTESELNLGELEPVEAIHRVVEFTFDHHDSNVDFVRIVCIENIHNGENVKQSDTIQAKSQNIIRALDGILRRGEASGLFRDGVHPVDLHLMISSFCFYRISNRHTFSEIFQIELWSEEVKQRHKAMICDAVLRYLKR | not soluble
6 | MKKIILVAALLSAAVCLPAQNKGGNKSGGINLSLWKKACTQPLDSTQTTYVNLGLFSAMHKLHGVGFNAFGSMVQNNMNGVQISGLANLAGGSMHGVQIGGISNVNGNNLAGLSVSGLVNITGNKAKGVLITGLSNIAGDNMRGLMMSGIMNITGDKAAGVQLAGLANVTGEEYDGLMMSGLLNVVGEEMNGLQLSGLANVTGGQMNGVQLGLFNFASKAKGLQIGLFNYHKEDMKGLQLGLVNANPQTKVQLMVFGGNSTKINVGARFKNKLFYTILGGGTHYLDFDDKFSAALFYRAGLELPLYRNLFVSGDLGYQHIETFRNKKVEGIPARLYALQARLNLEYRFTDKFGLFVTGGYGGSRYYNKARTYDKGVIAEAGVVLFMAGDPLEHHHHHH | not soluble
7 | MKKIMILVAVISFFSFSDDIKIDRAVKESITKDFDQDGKYSAYEKALRKAQESIYVTLPEHRGYWYSTLDKIKAEEEELLPDETARMRRR | not soluble
8 | MKKIVFLLLLCVACCMNAQEFHLIPKVGLNLANTTGEVDSKVRPGLNIGLGGDVMLTERFGIETGVYYSMQGSKYKGGGVSYTDKLDYINVPVYAKEFIYKGLYVFGGPQFSFNVNSENKSSSDYGTTVIGMNVIRKFDCGVGLGAGYQFERGLLISLNYNIGLINVNKSWASDSNPKANNSVVQLNVGWRFAL | not soluble
9 | MKKKLLAGAITLLSVATLAACSKGSEGADLISMKGDVITEHQFYEQVKSNPSAQQVLLNMTIQKVFEKQYGSELDDKEVDDTIAEEKKQYGENYQRVLSQAGMTLETRKAQIRTSKLVELAVKKVAEAELTDEAYKKAFDEYTPDVTAQIIRLNNEDKAKEVLEKAKAEGADFAQLAKDNSTDEKTKENGGEITFDSASTEVPEQVKKAAFALDVDGVSDVITATGTQAYSSQYYIVKLTKKTEKSSNIDDYKEKLKTVILTQKQNDSTFVQSIIGKELQAANIKVKDQAFQNIFTQYIGGGDSSSSSSTSNE | soluble
10 | MKKKLTGVALVLAAVSLMGIQPAGACTRAVYLGPDRMVVTGRTMDWKEDIMSNIYVFPRGMQRAGHNKEKTVNWTSKYGSVIATGYDIGTCDGMNEKGLVASLLFLPESVYSLPGDTRPAMGISIWTQYVLDNFATVREAVDEMKKETFRIDAPRMPNGGPESTLHMAITDETGNTAVIEYLDGKLSIHEGKEYQVMTNSPRYELQLAVNDYWKEVGGLQMLPGTNRSSDRFVRASFYIHAIPQTADAKIAVPSVLSVMRNVSVPFGINTPEKPHISSTRWRSVSDQKNKVYYFESTLTPNLFWLDLKKIDFSPKAGVKKLSLTKGEIYAGDAVKDLKDSQSFTFLFETPVM | soluble
11 | MKKKMMTVFTIGVMSLSILGGASPSETQKGKTDYTQRSKEQLNNGKIHAVHTEEKAEKLGIETEGKEQITLEKEIHETEVGREAEQLGISIEGKDVGMLSEEIYETKVKQEALKLGISIENTSIVDLITQINAIKIKDEADKLGISTDGKEIEDIAEEIYGKKVREEAGKLDISQKGKEIEELAQEVYEQKVQEEAKKHHIDLYGKDIYQILREINEQKVLQMADELNMDKMNMNIQELAEKIKKDQPEKGKELNFVPMVRTDADAFYSYLTNLEHHHHHH | not soluble
12 | MKKLIVASLSLTFMLGGCASMNKEGVGTITGGVVGGLLGSQFGGGSGKVAAAGAGALLGAYLGGQIGKTMDKVDRLEMQRALETAPTGKAVAWSNPDTGYRYTVQPTRTYYNAQQPCREYITKAMIGGKTQQIYGKACRQADGSWRVVNLEHHHHHH | not soluble
13 | MKKLLFFILILFGVLSVQSLANGCSAQICTCPGGGYVTTGQYCPVYNNNTPSQPVLTKWYAFSYDKNKNIYGVGTGYDKKTAQNEALKNCGTSECKIEKSQKIPGGISLAAVSSNGVMVTYSSFGSSTWEQYEKRIDNLIKKCKAKGGSNCKLVFDSAYLYRKDKNLGY | not soluble
14 | MKKMNHVLQVLMLSASLVASPFTYANEEKGLEIAQERKARDEGWGDSIATMEMILKNAQGESSTRLMRLKSLEVEGDGDKGLTIFDQPRDVTGTAFLNHSHTIGADDQWLYLPALKRVKRISSRNKSGPFMGSEFAYEDLSSFEIEKYRFNHLKDEKFNGQDVFVLEQIPTDKNSGYTKQVVWLDKAHYRPLKVEFYDRKGALLKTLTFANYKQYLDKYWRAHTMAMTNHQTGKSTELNTSDLRFQTGLEENDFNKNVLKRVK | not soluble
15 | MKKNMLRIMATVTIMGGLFVSTNVPNVKAEEYPEMIVFDDVPVNHWAYDDIMDVVYNKVMLGYGNGKFGVGDNVTREQVAAVLYRTLNLKKEGPLKNPYKDISERATFFLDEILVLTKHGIFEGDEKGNFRPAAPVTRAETAQILTKAFTFEVKKNHTFKDVPNNHWAKNAISALQSNHVIVGTGNGKFEPNKVVTREQYATFLNKAVFYFPVKDENYE | not soluble
16 | MKKPVIGITGNEKTHPDDDIMMSYAAKGFVEGVKDAGGIPIILPIGDQEMACHYISLIDKLILTGGQNVDPKFYGEPKTIDSDDYHLQRDIFELALIKEAIKQKKPIFSVCRGTQLFNVAMGGTLYQDIEDHWQDSSVEYTTQRLVTEPDTVLQEIYGEISHINSFHHQSIKDLAPNLKVVAHDPKDGIIEAVMSTDDVAFLGVQWHPELLFENRPKDKKLFDYVVNEL | not soluble
17 | MKKSLALLAFATLLPSAWTHADSAYINYRHQYAESTRMHADRVKFGSRLDSGWGFEGELKYKTAGDRQDVAFDNTVGNGHELTTSYQYRLNDKWMLTPSLALESIEKSTAYKMGLKLGYKVNDQLSVSGRYRYDSIKLDRDKVNHDMPDNQMDDQSINRYDVWVNYASKGPWAYEYQFTYFDADYIRYDNGRTDYEQNAAFKYRWDKHWVPFFEVGDIKVDSEDDKRQLRLRVGVQYNFL | not soluble
18 | MKKVLLTLSLSIVASMGSFAQNEPYKNPKLTPEERAEDLLGRLTLKEKIGLMKNSSFAVERLGVAPYNWWSEALHGVARNGLATVFPITMGMASTFDDEAIERVYVAVSDEGRAKFHDAHRSNRYGYGNEGLTFWNPNVNIFRDPRWGRGQETFGEDPYLTTRMGVAVVKGMQGPADAEYDKAHACVKHYAVHSGPEAKRHSFDVEDLSPRDLWETYLPAFKALVQEADVKEVMCAYQRLEGEPCCDSNRLLTQILRDEWGYKHLVVSDCGAIDDFFVKGRHETHKDAADASASAVINGTDLECGSIYSHLEEAVKQGLITEERIDTSLRRLLKARFALGEMDP | not soluble
19 | MKKVSVLIVAKNEANHIQECIESCRFDKEVIVIDDYSTDNTAEIAEGLGAKVFRRHLNGDFGAQKTFAIEQAGGEWVFLIDADERCTPELSDEISKIVQTGDYAAYFVERRNLFPNHPATHGAMRPDSVCRLMPKKDSSVQGKVHETVQTPYPKRRLKHFMYHYTYDNWEQYFNKFNKYTSISAEKYREQGKPVRFVRDIILRPIWGFFKIYILNKGFLDGKMGWIMSVNHSYYTMIKYVKLYYLYKSGGKF | not soluble
20 | MKKVYIKTFGCQMNEYDSDKMADVLGSAEGMVKTDNPEEADVILFNTCSVREKAQEKVFSDLGRIRPLKEANPDLIIGVGGCVASQEGDAIVKRAPFVDVVFGPQTLHRLPDLIESRKQSGRSQVDISFPEIEKFDHIPPAKVDGGAAFVSIMEGCSKYCSFCVVPYTRGEEVSRPFEDVLTEIAGLAAQGVKEITLLGQNVNAYRGLMSDGEIADFALLLEYVHEVPGVERIRFTTSHPREFSQRIIDCYAKLPKLVSHLHLPVQSGSDRVLMAMKRGYTGLEYKSIIRKLRAIRPDLCLSSDFIIGFPGETEADFEQTLKLVRDCEFDFSFVFIYSPRPGTPAANLPDDTPHAEKVRRLEALNEVIEAKGYAINQSMVGTVQRVLVENVSKKDATMLAARTANNRVVNFAGHPRLLGRMIEVKITAAFPHSLAGEALTSESALEHHHHHH | soluble
21 | MKKYLNQNVYDALIERLHFLFNDFPIVYISFSGGKDSGLLLNILLDFRDKYYPDREIGVFHQDFEAQYSLTTKYVQETFTSLEGRKKVSLYWVCLPMATRTALSSYEMFWYPWDDKTEDIWVRPMPSQDYVINLENNSITTYRYKMNQEDLAKQFGRWYKQIHGNQKTVCILGNRASESLHRYSGFINKKYGYQKECWITKQFKDVWTASPLYDWSVEDIWHAYYKFSYSYNELYDLFYKAGLKPSQMRVASPFQDYAVDSLNLYRIIDQETWVKLLGRVQGVNFSNIYGRTKAMGYKSIALPKGHSWKSYTQFLLSTLPVRLRNNYVRKFNKSIDFWHKTGGGLAEETINELIEKGYRIARNGISNYTSFKHSRVIFLDQIPDDTDDIVTTKDIPSWKRMCFCILKNDHICRTMGFGLTREQQKIVAFLKEKYKTSLKELESE | not soluble
